Test results taken from publication PMC9700832.

Legend:
[1] = biological target: Bacillus thuringiensis serovar israelensis LexA (B. thuringiensis serovar israelensis); assay: SPR; LexA immobilised on a CM5 chip (1200 to 1300 RU); analytes in three-fold dilutions (6-1458 nM), 180 s at 30 uL/min, 25 °C; 20 mM HEPES pH 7.4, 150 mM NaCl, 3 mM EDTA, 0.1 mg/mL BSA, 0.005% P20; apparent KD from steady-state affinity fits, two titrations
[2] = biological target: Staphylococcus aureus LexA (S. aureus); assay: as above
[3] = biological target: Staphylococcus aureus LexA (S. aureus); assay: SPR; […] (6-1458 nM), 180 s at 30 uL/min, 25 °C; 20 mM HEPES pH 7.4, 150 mM NaCl, 3 mM EDTA, 0.1 mg/mL BSA, 0.005% P20; […]

Substance: Bacillus thuringiensis uncharacterized protein M1QNS5 (natural protein)
- Kd [1]: 365 nM

Substance: Staphylococcus aureus nucleoid-associated protein HU, purified recombinant (from UniProt Q5HFV0 1-90) (natural protein)
- Kd [2]: 843 nM

Substance: gp7 of bacteriophage GIL01 (natural protein)
- Kd [2]: 298 nM

Substance: tectiviral gp7 homolog from the phage found in Bacillus cereus HuB13-1 (natural protein)
- Kd [2]: 787 nM

Substance: tectiviral gp7 homolog from the phage found in Bacillus cereus VD184 (natural protein)
- Kd [2]: 381 nM

Substance: tectiviral gp7 homolog from the phage found in Bacillus thuringiensis serovar aizawai (natural protein)
- Kd [2]: 302 nM

Substance: tectiviral gp7 homolog of Bacillus anthracis phage AP50 (natural protein)
- Kd [3]: 446 nM

Substance: tectiviral gp7 homolog of Bacillus mycoides VDm034 phage Lima (natural protein)
- Kd [3]: 331 nM
